Results: patent US20100159011A1, “Compositions For Biomedical Applications” (University of Massachusetts Medical School, priority 2007, published 2010)

Test system: murine macrophage RAW264.7 cells
Test: Osteoclastic differentiation of RAW264.7 cells (TRAP stain)
Type: cell-based
Settings: for osteoclast differentiation of RAW264.7 (TRAP): no graft carrier
Method: Grafts (5×5×1 mm, FlexBone 25% HA-25% TCP) were pre-absorbed with varying amounts of growth factors and cytokines to provide an exogenous supply for remodeling. […] The preferred loading dose of RANKL (10 ng/FlexBone graft) was determined by the osteoclastic differentiation of macrophage RAW264.7, induced by the RANKL released from the graft as indicated by positive TRAP stains (purple) of multinucleated cells on Day 6. […] Finally, the preferred loading dose of rhVEGF165 in stimulating the proliferation of human vascular endothelial cells in culture was determined to be 5 ng/graft.
Osteoclastic differentiation of murine macrophage RAW264.7 cells induced by the rmRANKL released from FlexBone. The bioactivity of the exogenous rmRANKL released from FlexBone is evaluated by its ability to induce osteoclastic differentiation of murine macrophage RAW264.7 cells six days after placing the FlexBone graft pre-loaded with rnRANKL in the RAW264.7 culture. RAW264.7 cells were seeded at 10,000/cm^2 in a 24-well plate in alpha-MEM (0.5 mL/well) supplemented with 10% FBS and 1% Pen-Strep, and allowed to attach overnight. One FlexBone or pHEMA graft freshly loaded with 10-ng rmRANKL was then added to each well (N=3 for each combination) on day one, and the culture was continued for 6 days with media change every two days without additional supplement of rmRANKL. In the positive control well, 10 ng rmRANKL was supplemented directly in the culture media without a graft carrier every two days. In the negative control well, 10 ng rmRANKL was supplemented directly in the culture media without a graft carrier on day one, and the medium was changed every two days without any additional supplement of rmRANKL. […] Grafts were removed from all wells before the cells were stained for tartrate-resistant acid phosphatase (TRAP) activities using the Sigma TRAP kit following the manufacturer's instructions.

B1: rmRANKL: recombinant receptor activator of nuclear factor κ ligand, purchased from R&D Systems (protein, UniProt O35235 139-316, looked up)
Tumor necrosis factor ligand …: FSGAPAMMEGSWLDVAQRGKPEAQPFAHLTINAASIPSGSHKVTLSSWYHDRGWAKISNMTLSNGKLRVNQDGFYYLYANICFRHHETSGSVPTDYLQLMVYVVKTSIKIPSSHNLMKGGSTKNWSGNSEFHFYSINVGGFFKLRAGEEISIQVSNPSLLDPDQDATYFGAFKVQDID
osteoclast differentiation of RAW264.7 (TRAP) (continued supplement of 10-ng every other day, day six): led to the formation of TRAP-positive multinucleated osteoclasts by day six | preferred loading dose (determined by osteoclastic differentiation of RAW264.7, TRAP stains on Day 6): 10 ng/FlexBone graft | supplement needed every other day to induce differentiation (no graft control): 5 ng | osteoclast differentiation of RAW264.7 (TRAP) (single supplement of 10-ng directly to the culture): not sufficient in inducing the osteoclast differentiation
